Target: FgSreA, 6xHis-tagged recombinant protein (Fusarium graminearum PH-1)
Experiment: MST
Details: natural protein

Substance: FgGrx4, 6xHis-tagged recombinant protein
- EC50: 17.7 µM
- Kd: 0.1 nM
